The record followed here is patent US20240294650A1 (Alector, published 2024).

To fix the notation:
T1: His tag-conjugated recombinant ProS (human, UniProt P07225 42-676, limits assumed)
T1 construct: bought; also called Protein S; ProS1 (R&D systems, Cat #9489-PS-100)
T1 sequence (looked up): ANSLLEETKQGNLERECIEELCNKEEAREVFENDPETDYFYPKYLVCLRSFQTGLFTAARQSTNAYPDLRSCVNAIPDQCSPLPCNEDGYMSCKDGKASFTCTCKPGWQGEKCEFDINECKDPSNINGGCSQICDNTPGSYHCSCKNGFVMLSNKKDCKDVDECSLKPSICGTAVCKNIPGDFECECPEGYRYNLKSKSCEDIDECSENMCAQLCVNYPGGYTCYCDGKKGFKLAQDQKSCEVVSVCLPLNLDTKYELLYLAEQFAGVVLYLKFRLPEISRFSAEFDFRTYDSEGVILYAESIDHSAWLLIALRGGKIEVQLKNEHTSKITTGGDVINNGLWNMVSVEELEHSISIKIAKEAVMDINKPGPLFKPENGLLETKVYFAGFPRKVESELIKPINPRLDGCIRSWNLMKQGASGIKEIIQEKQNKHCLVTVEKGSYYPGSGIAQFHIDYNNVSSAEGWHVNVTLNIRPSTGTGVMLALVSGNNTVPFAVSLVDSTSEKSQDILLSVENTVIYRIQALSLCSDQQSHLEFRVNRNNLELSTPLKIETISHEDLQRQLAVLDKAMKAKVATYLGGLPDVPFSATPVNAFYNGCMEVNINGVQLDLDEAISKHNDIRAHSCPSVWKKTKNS

T2: MerTK N-terminal ECD Half-and-half chimera (human)
T2 construct: tested as culture supernatant; also called MerTK N-term half-and-half chimera; MerTK N-terminal ECD (NT-Ig1-Ig2) + Axl C-terminal ECD (FN1-FN2-JM)
T2 chain: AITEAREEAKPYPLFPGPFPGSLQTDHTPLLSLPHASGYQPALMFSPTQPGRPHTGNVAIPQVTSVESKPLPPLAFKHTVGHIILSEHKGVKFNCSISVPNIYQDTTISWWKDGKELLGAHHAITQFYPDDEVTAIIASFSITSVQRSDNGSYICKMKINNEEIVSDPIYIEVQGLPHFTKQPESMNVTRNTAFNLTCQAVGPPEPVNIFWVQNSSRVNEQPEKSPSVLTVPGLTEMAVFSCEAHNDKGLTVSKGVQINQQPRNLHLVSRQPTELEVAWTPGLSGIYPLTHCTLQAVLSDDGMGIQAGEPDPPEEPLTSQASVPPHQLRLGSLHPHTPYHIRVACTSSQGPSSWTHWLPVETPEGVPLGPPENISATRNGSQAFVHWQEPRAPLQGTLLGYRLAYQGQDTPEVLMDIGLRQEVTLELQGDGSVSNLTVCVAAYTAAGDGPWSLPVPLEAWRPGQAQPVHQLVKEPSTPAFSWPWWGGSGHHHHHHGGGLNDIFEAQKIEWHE

T3: recombinant murine MerTK extracellular domain (mouse, UniProt Q60805 19-497)
T3 construct: also called Mouse MerTK; murine MerTK ECD; not shown: polyHis or TEVS/Thrombin/murine IgG2a-Fc tag
T3 sequence: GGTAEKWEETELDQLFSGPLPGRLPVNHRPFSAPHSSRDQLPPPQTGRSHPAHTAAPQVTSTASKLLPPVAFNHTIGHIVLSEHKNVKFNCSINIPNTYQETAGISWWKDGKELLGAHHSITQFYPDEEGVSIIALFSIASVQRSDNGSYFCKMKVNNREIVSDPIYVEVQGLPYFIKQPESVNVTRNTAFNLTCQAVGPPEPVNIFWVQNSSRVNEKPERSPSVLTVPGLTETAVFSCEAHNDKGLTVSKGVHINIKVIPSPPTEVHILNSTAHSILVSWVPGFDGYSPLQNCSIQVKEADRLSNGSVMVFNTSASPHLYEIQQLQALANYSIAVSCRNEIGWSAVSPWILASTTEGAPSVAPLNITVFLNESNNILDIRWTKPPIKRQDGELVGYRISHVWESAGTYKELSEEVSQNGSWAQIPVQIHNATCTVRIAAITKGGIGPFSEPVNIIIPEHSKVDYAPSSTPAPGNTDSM

B1: MTK-213 (antibody, human IgG1, V domains shown)
VH: QVQLQQPGAELVKPGASVKMSCKASGYTFTSYWITWVKQRPGQGHEWIGEIYPGIGSTNYNEKFKSKATLTVDTSSRTAYMQLSSLTSEDSAVYFCARGAYTKYYFDYWGQGTTLTVSS
VL: DIVMTQSHKFMSTSVGDRVSITCKASQDVGDAVAWYQQKPGQTPKLLIYWASTRHTGVPDRFTGSGSGTDFTLTISNVQSEDLADYFCQQYSSYLMYTFGGGTKLEIK
B2: MTK-231 (antibody, human IgG1, V domains shown)
VH: DVQLQESGPGLVKPSQSLSLTCSVTGYSITSGYYWNWIRQFPGNKLEWMGYISYDGTYNYHPSLKNRISITRDTSKNQFFLTLNSVTTEDTATFYCTRGGGYWGQGTSVTVSS
VL: DVVMTQTPLSLPVSLGDQASISCRSSQSLVHSDGNTYLHWYLQKPGQSPKLLIYKVSNRFSGVPDRFSGSGSGTDFTLKISRLEAEDLGIYFCSQTTHIPLTFGSGTKLEIK
B3: MTK-214 (antibody, human IgG1, V domains shown)
VH: QVQLQQPGAELVKPGASVKVSCKASGYTFTNYWMHWMKQRPGQGLEWIGRIHPFDSDTNYNEKFTDKATLTVDKSSSTAYMQLSSLTSEDSAVYYCAIGTLIYWGQGTTLTASS
VL: DILLTQSPATLSVTPGETVSLSCRASQSIYKKLHWFQQRSHRSPRLLIKFASDSISGIPSRFTGSGSGTDYTLSINSVKPEDEAIYYCLQGYSTPLTFGAGTKLELK
B4: MTK-224 (antibody, human IgG1, V domains shown)
VH: QVQLQQPGAELVKPGASVKVSCKASGYTFTSYWMHWVKQRPGQGLEWIGRIHPFDSDTNYNQKFKGKATLTVDKSSSTAYMQLSSLTSEDSAVYYCSIAGFAYWGQGTLVTVSA
VL: DIVMTQSPATLSVTPGDRVSLSCRASQIISDYLNWYQQKSHESPRLLIKYASQSISGIPSRFSGSGSGSDFTLSINSVEPEDVGVYYCQNGHSFPLTFGAGTKLELK
B5: MTK-207 (antibody, human IgG1, V domains shown)
VH: QVQLKESGPGLVAPSQSLSITCTVSGISLTSYGVSWVRQPPGKGLEWLGIIWGDGSTNYHSALISRLSISKDNSKSQVFLKLNSLQTDDTATYYCAKGRYGNYEDWYFDVWGTGTTVTVSS
VL: DIQMTQSPASLSASVGETVTITCRASGNIHNYLAWYQQKQGKSPQLLVYNAKTLAAGVPSRFSGSGSGTQYSLKINSLQPEDFGSYYCQHFWSIPLTFGAGTKLELK

The target of one assay is T1, His tag-conjugated recombinant ProS. As to the kind of experiment: ELISA, captured Ab, ProS-His 10 ug/ml, no MerTK.
As to B1, the binding result is reported as “binds”.
Same read-out and setting: the value for B2 was “binds”; that for B3 was “binds”; that for B4 was “binds”.
For B5, the binding result was “binds”.

The target in a further assay is T2, MerTK N-terminal ECD Half-and-half …. The experiment in a line: SPR, construct supernatant over immobilised Ab. The procedure: Binding of anti-MerTK antibodies of the present disclosure to these domain-swapped chimera or deletion mutants was tested by Surface Plasmon Resonance (SPR) using Carterra LSA. Purified anti-MerTK antibodies were immobilized in duplicate on a HC30M chip (Carterra) by amine coupling, following the manufacturer's instructions (described previously).
Supernatants containing the constructs were diluted 1:1 with running buffer containing 0.5 mg/mL BSA (HBS-TE, Carterra; BSA, Sigma) and injected over the immobilized antibodies. The surface was regenerated with 10 mM Glycine pH2.0 after each construct injection. Sensorgrams were analyzed using Carterra Epitope software to identify patterns of construct binding. Loss of binding to MerTK constructs with domains deleted or swapped in from Axl and/or gain of binding to Axl constructs with MerTK domains swapped in were evaluated. Data from these studies were used to construct a domain binding map for anti-MerTK antibodies and their binding to various domains of human MerTK.
Regarding B3, the binding result is reported as “no binding”.
For B4, the binding result is recorded as “no binding”.

Another assay deals with T3, recombinant murine MerTK extracellular …. As to the kind of experiment: SPR Carterra LSA.
Regarding B1, the “Ratio of KD for Mouse vs Human MerTK” value amounted to 0.08 ratio.
Regarding B3, the “Ratio of KD for Mouse vs Human MerTK” value stood at 32 ratio.
On the same count and under the same terms, as for B4, the figure is 64.2 ratio.
